Source: article PMC8877046, “Interferon-β Activity Is Affected by S100B Protein” (International Journal of Molecular Sciences, 2013)
One block for each molecule: values may come before it.

How the values were obtained:
[1] = target: IFNAR2 ECD (Homo sapiens) (UniProt P48551); conditions: cited from earlier work
[2] = target: the molecule itself; test: cross-linking; 5 µM IFN-β with 10 µM Ca2+-depleted S100B (1:2), and 10 µM apo-S100B alone; 40 mM EDAC, 10 mM sulfo-NHS, 25 °C, 1.5 h; 10 mM HEPES, 150 mM NaCl, pH 7.4, without CaCl2 and without chelator; authors say the samples could be contaminated by Ca2+
[3] = target: T1, Human interferon beta-1a (IFN-β, Rebif) (human), P01574; test: other fluorescence titration; tryptophan fluorescence of 0.5 µM IFN-β (excitation 295 nm) titrated by S100B; 25 °C; 10 mM HEPES-NaOH, 150 mM NaCl, 1 mM CaCl2, pH 7.4; one-site binding model; apparent; conditions: remark: other sources report otherwise
T1 chain: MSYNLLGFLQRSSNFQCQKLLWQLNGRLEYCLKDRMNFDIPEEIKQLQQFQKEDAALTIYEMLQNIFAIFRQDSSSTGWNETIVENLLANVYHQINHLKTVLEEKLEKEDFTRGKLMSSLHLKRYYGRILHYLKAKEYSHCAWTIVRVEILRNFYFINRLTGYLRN

[4] = target: T2, Human S100B protein (human), P04271; test: SPR; S100B immobilised by amine coupling on ProteOn GLH chip (up to 9000 RU); analyte 10-80 nM IFN-β; 25 °C; 10 mM HEPES, 150 mM NaCl, 0.05% TWEEN 20, 1 mM CaCl2, pH 7.4; heterogeneous ligand model (two populations of ligand); conditions: remark: other sources report otherwise
T2 chain: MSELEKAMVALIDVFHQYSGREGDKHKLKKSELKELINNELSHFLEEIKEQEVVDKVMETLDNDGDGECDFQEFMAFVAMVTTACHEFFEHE

[5] = target: the molecule itself; test: cross-linking; 5 µM IFN-β alone; 40 mM EDAC, 10 mM sulfo-NHS, 25 °C, 1.5 h; 10 mM HEPES, 150 mM NaCl, pH 7.4; SDS-PAGE, silver staining; whether CaCl2 was present is not told for this lane

IFNAR2 ECD (Homo sapiens), sequence (P48551 27-243): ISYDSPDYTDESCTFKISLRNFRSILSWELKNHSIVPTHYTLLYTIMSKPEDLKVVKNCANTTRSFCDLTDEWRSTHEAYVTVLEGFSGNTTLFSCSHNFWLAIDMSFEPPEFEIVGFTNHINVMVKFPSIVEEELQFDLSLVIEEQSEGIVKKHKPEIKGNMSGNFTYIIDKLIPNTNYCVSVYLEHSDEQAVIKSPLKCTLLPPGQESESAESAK

Molecule: IFN-β (from UniProt P01574)
- Kd [1]: 0.1 nM

- Kd [3]: 21 nM
- stoichiometry N (S100B to IFN-β molar ratio) [3]: 1
B1: Human S100B protein (natural protein)
chain: T2 chain
notes: human S100B, UniProt P04271; crystal structure of Ca2+-loaded human S100B dimer PDB 5D7F chains A and B; The authors take the S100B that was amine-coupled to the SPR chip to be partly converted to the monomer; also called apo-S100B; Ca^2+-loaded S100B
- stoichiometry N [2]: 2

- Kd1 (ligand population 1 of the heterogeneous ligand model) [4]: 47 pM
- Kd2 (ligand population 2 of the heterogeneous ligand model) [4]: 87 nM
- kd1 (dissociation rate constant, ligand population 1 of the heterogeneous ligand model) [4]: 0.000149 s⁻¹
- kd2 (dissociation rate constant, ligand population 2 of the heterogeneous ligand model) [4]: 0.013 s⁻¹
- t1/2 of dissociation (fast process) [4]: 1.67 min
- t1/2 of dissociation (slow process) [4]: > 16.7 min
B2: Human interferon beta-1a (IFN-β, Rebif) (ligand, UniProt P01574 22-187, looked up)
chain: T1 chain
notes: human interferon-β (interferon beta-1a), gene IFNB1, UniProt P01574; Drug product Rebif; also called Interferon-β; source: produced in CHO-K1 cells; bought: Merck (Rebif)
- binding result [5]: binds
